Assay results reported in the nanobody polyreactivity screen of Harvey et al. (2022).

Assay: yeast display, Sf9 membrane polyspecificity reagent, FACS + sequencing; frameworks hold sequencing errors
In short: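 A nanobody's polyreactivity label depends on the gate it was sorted from. Yeast display cells were stained with 10% biotinylated, detergent-solubilized Sf9 membrane reagent for 1 hour at 4 °C, enriched on streptavidin microbeads and sorted by FACS. The low and high (top ~1%) gates were set on anti-HA fluorescence for expression and streptavidin fluorescence for reagent binding.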

QVQLVESGGGLVQAGGSLRLSCAASGRTFYRYAMGWYRQAPGKERELVAAITTSGGSTYYADSVKGRFTISRDNAKNTVYLQMNSLKPEDTAVYYCAATYYGYHIRDDYWGQGTQVTVSS
polyreactivity (PSR sort gate): low polyreactivity

QVQLVESGGGLVQAGGSLRLSCAASGLIFVVYVMGWYRQAPGKERELVAAISGSGDSTYYADSVKGRFTISRDNAKNTVYLQMNSLKPEDTAVYYCNARSISRKKGYPPQRSDGYWGQGTQVTVSS
polyreactivity (PSR sort gate): high polyreactivity

QVQLVESGGGLVQAGGSLRLSCAASGRIFRHYAMGWYRQAPGKERELVAAINWNGGSTYYADSVKGRFTISRDNAKNTVYLQMNSLKPEDTAVYYCAARYRYVRGMDYWGQGTQVTVSS
polyreactivity (PSR sort gate): high polyreactivity

QVQLVESGGGLVHAGGSLRLSCAASGSIFDWNAMGWYTQAPGKERELVATISWDGGSTYYADSVKGRFTISRDNAKNTVYLQMNSLKPEDTAVYYCATVFTGKPAFYARTKYDYWGQRTQVTVSS
polyreactivity (PSR sort gate): low polyreactivity

QVQLQESGGVQAGGSLRLSCAASGYISRSDVKGWYRQAPGKERELVATINNGTITYYADSVKGRFTISRDNAKNTVYLQMNSLKPEDTAVHYCAVVQSDTDSLYYWGQGTQVTVSS
polyreactivity (PSR sort gate): low polyreactivity

QVHLQESGGGLMQAGGNLRLSCAASGYISTHYDMDWYRQAPGKERELVARIDDGAITNYADSVKGRFTISRDNAKNTVYLQMNSLKPEDTEVYYCAVYSGDDYYHDYWGQGTQVTVSS
polyreactivity (PSR sort gate): low polyreactivity

QVQLVESGGGLIQAGGSLRLSCAASGSNFRYYALGWYRQAPGKESELVAAISQSGGSTHYAESVKGRFTISRDNAKITVYLQMNSLKAEDTAVYYCAKHWGPGTQVTVSS
polyreactivity (PSR sort gate): low polyreactivity

QVQLVESGGGLVQAGGSLRLSCAASGRIFQYYAMGWYRQAPGKERELVAAINSSGGRTYYADSVKGRFTISRDTAKNTVYLQMNSLTPEDTAVNSCNAVLSTRGMDYWGQGTQVTVSS
polyreactivity (PSR sort gate): high polyreactivity

QVQLVESGGGLVQAGGSLRLSCAASGRIFSPYVMGWYRQAPGKERELVAAITGSGGSTYYADSVKGRFTISRDNAKKTVYLQMNSLKPEDTAVYYCAVVSRTTAMDYRGQGTQVTVSS
polyreactivity (PSR sort gate): high polyreactivity

QVQLVESGGGLVQAGGSLRLSCAASGIILYGYAMGWYRQAPGKERELVAAISRRGGITYYADSVKGRFTISRDNAKNTVYLQMNSLKPEDTAVYYCAADWYGYRQFHGYYWGQGTQVTVSS
polyreactivity (PSR sort gate): high polyreactivity

QVQLVESGGGLVQAGGSLRLSCAASGRIIRRYAMGWYRQAPGKERELVAAISRSGGSTYYADSVKGRFTISRDNAKNTVFLQMKRLKPEDTAVYYCNRRYITYNYDYWGQVTQVTVSS
polyreactivity (PSR sort gate): high polyreactivity

QVQLVESGGGLVQAGGSLRLSCAASGSIFTHYAMGWYRQAPGKERELVAGITSSGGSTYADSVKGRFTISRDNAKNTVYLQMNSLKPEDTAVYYCNADNATYFVYEFNYWGQGTQVTVSS
polyreactivity (PSR sort gate): low polyreactivity

QVQLVESGGGLVQAGGSLRLSCAASGRTFGANAMGWYRQAPGKERELVAAISSSDDSTYYADSVKGRFTISRDNAKKTDDLQMNSLKPEDTAVYYCAVAVGYTDSPYSYDYWGQGTQVTVSS
polyreactivity (PSR sort gate): low polyreactivity

QVQLVESGGGLVQAGGSLRLSCAASGITFYFYAMGWYRQAPGKERELVAAITRGGRTNYADSVKGRFTISRDNAKNTVYLQMNSLKPEDTAVYYCNKRLYSYYPGKYVAEYDYWGQGTQVTVSS
polyreactivity (PSR sort gate): high polyreactivity

QVQLVESGGGLVQAGGSLRLSCAASGFIFKSNGMGRYRPEPGKERELVSAIRRSGGSTYYADSVKGRFSISRDYAKNTFYLQMNSLKPEVTAVYYCGIRRGVYTHWYDYWGQGTQVTVSS
polyreactivity (PSR sort gate): high polyreactivity

QVQLVESGGGLVQAGGSLRLSCAASGFIFYYYAMGWYRQAPGKERELVAAISSRGGITYYADSVKGRFTISRDNAKNTVYLQMNSLKPEDTAVYYCAVDFRPGYDYWGQGTQVTVSS
polyreactivity (PSR sort gate): low polyreactivity

QVQLVESGGGLVQAGGSHRLSCAASGFTFIGYPMGWYRQAPGKERELVAAITQSGGSTFYADSVKGRFTISRDNAKNTVYLHMNSLKPEDTAVYYCNAYRKFRYWGHGTQVTVSS
polyreactivity (PSR sort gate): low polyreactivity

QVQLVESGGGLVQAGGSLRLSCAASGRILYGYAMGWYRQAPGKERELVAGISWRGGSTYYADSVKGRFTISRDNAKNTVYLQMNSLKPEDTAVYYCAARGWPSQVPVRVFRYDYWGQGTQVTVSS
polyreactivity (PSR sort gate): high polyreactivity

QVQLVESGGGLVQAGGSLRLSCAASGSIFYGYAMGWYRQAPGKERELVAAISGNGGSTYYADSVKGRFTISRDNAKNTVYLQMNRLKPEDTAVYYCAVEVYHYGFEYDYWGLGTQVTVSS
polyreactivity (PSR sort gate): high polyreactivity

QVQLVESGGGLVQAGGSLRLSCSASGFTFKRYAKGLYRQAHGKERELVASISSSGGRTYYADSVKGRFTISRDNAKNTVYLQMNSLKPEDTAVYYCSASDWWGYYFWGQGTQVTVSS
polyreactivity (PSR sort gate): high polyreactivity

QVQLVESGGGLVQAGGSLRLSCAASGRTFGFNVMGWYRQAPGKERELVAAISWSGGSTYYADSVKGRFTISRDNAKNTVYLQMNSLKPEDTAVYYCNNRYVHRYGYWGQGTQVTVSS
polyreactivity (PSR sort gate): low polyreactivity

QVQLVESGGRLVQSGGSLRLSCAASGSIFVWNAMGWYRQAPGKERELVAAISYDGGSTYYADSVKGRFTISRDNAKNTVYLQMNSLKPEDTAVYYCAFEYVYWLSWYFQYDYWGQGTQVTVSS
polyreactivity (PSR sort gate): low polyreactivity

QVQLVESGGGLVQAGGSLRLSCAASGSTFQTYAMGWYRQAPGKERELVAAISRRSGSTYYADSVKGRFTISRDNAKNTVYLQMNSLKPEDTAVYYCAARYVSRRFLGYYYWGQGTQVTVSS
polyreactivity (PSR sort gate): high polyreactivity

QVQLVESGGGLVQAGGSLRLSCAASGSIFRFNVMGWYRQAPGKERELVAAITRGDSTNYADSVKGRFTISRDNAKNTVYLQMNSLKPEDTAVYYCAAGYYYYLRDHDYWGQGTQVTVSS
polyreactivity (PSR sort gate): low polyreactivity

QVQLQESGGGLVKAGGSLRLSCAASGNISNHNDMGWYRQAPGKEREFVAGITAGGNTNYADSVKGRFTISRDNAKNTVYLQMNSLKPEDTAVYYCAAYPDYAKSYGYWGQGTQATVSS
polyreactivity (PSR sort gate): low polyreactivity

QVQLVESGGGLVQAGGSLRLSCAASGFTFYYNAMGWYRQAPGKERELVAAIYSDGSTYYADSVKGRFTISRDNAKNTFYLQMNSLKAEDTAVYYCAVRKAYQYGFYYWGQGTQVTVSS
polyreactivity (PSR sort gate): low polyreactivity

QVQLVESGGGLVQAGGSLRLSCAASGIIFYYYAKGWYRQSPGKERELVAAISSSGGRTRYADSVKGRFTISRDNAKNTVFLQMNSLKPEDSAVYYCAAEFIRGYGESYDYWGQGTQVTVSS
polyreactivity (PSR sort gate): low polyreactivity

QVQLVESGGGLVQAGGSLRLSCAASGSILGSNVMGWYRQAPGKERELVAAITSGDSTNYADSVKGRFTISRDNAKNTVYLQMNSLKPEDTAVYYCAKPYSVAPAAVLNWYLGYEYWGQGTQVTVSS
polyreactivity (PSR sort gate): low polyreactivity

QVQLVESGGGLVQAGGSLRLSCAASGSIFGEYTMGWYRPAPGKERELVAAIRSGGDTYYADSVKGRFTISRDNAKNTVYLQMNSLKPEDTAVYYCNAYWVRHYIMDYWGQGTQVTVSS
polyreactivity (PSR sort gate): low polyreactivity

QVQLVESGGGLVQAVGSLRLSCAASGRTFYRYAMGWYRQAPGKERELVASITRRGGNTYYADSVKGRFTISRDNAKNTVYLQMNSLKPEDTAVYYCAAQSLHPGNWGQGTQVTVSS
polyreactivity (PSR sort gate): high polyreactivity

QVQLVESGGGLVQAGGSLRLSCAASVFIYVKYAMGWYRQAPGKERELVAAITWSTGSTYYADSVKGRFTISRDNAKNTVYLQMNSMKPEDTAVYYCNVDSAWGRRYYSSYPFYYWGQGTQVTVSS
polyreactivity (PSR sort gate): low polyreactivity

QVQLVESGGGLVQAGGSLRLSCAASGSIFFVYDMGWYRQAPGKERELVAAITWSGGRTTYADSVKGRFTISRDNAKNTVYLQMNSLKPEDTAVYYCAKAWPDHWYSRYDYWGQGTQVTVSS
polyreactivity (PSR sort gate): low polyreactivity

QVQHVESGGGLVQAGGSLRLSCASSGRIIGKYVMAWYRQAPGKERELVAGISWSAGSTYYADSVKGRFTISRDNAKNTVYLQMNSLKPEDTAVYYCAAGLEGVYDYWGQGTQVTVSS
polyreactivity (PSR sort gate): low polyreactivity

QVQLVESGGGLVQAGGSLRLSCAASGRTSLAYAMGWYRQAPGKERELVAAISRTGSTYYADSVKGRFTISRDNAKNTVYLQMNSLKPEDTAVYYCNAKRRPYSVRSDYWGQGTQVTVSS
polyreactivity (PSR sort gate): high polyreactivity

QVQLVESCGGLDQAGGSLRLSCAASGFMFHLYGMGWYRQAPGKEMEWVAAISSGGRTYYADSVKGRFTISRDNAKNTVYLQMNSLKPEDTAVYYCAVYVAYLYSYYYWGQGTQETVSS
polyreactivity (PSR sort gate): low polyreactivity

QVQLEESGGGLVQAGGSLRLSCAASGITFFHYAMGWSRPAPGKERELVAAITWRGSSTYYADSVKGRFTMSRDNAKNTVYLQMNSLKPEDTAVYYCNAEVGYYEYDYWGQGTQVTVSS
polyreactivity (PSR sort gate): high polyreactivity

QVQLVESGGGLDQAGGSLRLSCAASGRIIRYYAKGWYRQAPGKEREFVATISSGGSTNYADSVKGRFTISRDNAKNNVYLQMNSLKQEHTSVYYCNRVYSRHVWGQGTQVTVSS
polyreactivity (PSR sort gate): high polyreactivity

QVQLVESGGGLVQAGGSLRLSCAASGRIFGAYTMGWYRQAPGKERELVAAISWSGGRTYYADSVKGRFTISRDNAKNTVYLQMNSVKPEDTAVYYCAASYSGRQDRYPHYDYWGQGTQVTVSS
polyreactivity (PSR sort gate): low polyreactivity

QVQLVESGGGLVEAGGSLRLSCAASGLTFIVKAIGWYRQAPGKEREFVAAIRSGDGNTHYADSLKGRYTISRDNAKNTVYFQMNSLKPVDTAVYYCNAGFPRSYRFDYWGQGTQVTVSS
polyreactivity (PSR sort gate): high polyreactivity

QVQLEESGGCLVQAGGSLRLSCAASGRIFGSYTMGWYRQAPGKERELVAAISDSGGSTYYADSVKGRFSISRDNAKNTVYLQMNSLKPEDTAVYYCNADWSWYNYYDFDYWGQGTQVTVSS
polyreactivity (PSR sort gate): low polyreactivity

QVQLVESGGGLVQAGGSLRLSCAASGRTIFRYAMGWYTQAPGKERDLVAAITWSGGTTYYADSVKGRFTISRDNAKNTVYLQMNSLKPEDTAVYYCNARGLWYRRVVTYGYWGQGTQVTVSS
polyreactivity (PSR sort gate): high polyreactivity

QVQLVESGGGLVQAGGSLRLSCAASGSTFSPYAMGWYRQAPGKERELVAAINYSSGSTYYADSVKGRFTISRDNAKNTVYFQMNSLKTEDTAVYYCAKGWYAGYPYDYWGQGTQVTVSS
polyreactivity (PSR sort gate): low polyreactivity

QVQLVESGGGIVQAGGSLRLSFAASGSIFEINALGWYRQAPGKERELVAAITGSGGSTHYADSVKGRFTISRDTAKNTVYLQMNSLKPEDTAVYYCARTQRYDYGYDYWGQGTQVTVSS
polyreactivity (PSR sort gate): low polyreactivity
